The target of the assay is wild type plasma kallikrein recombinant catalytic domain (Pichia pastoris) (human) (UniProt P03952). Description: enzyme inhibition assay: rate (F/s) of cleavage of a substrate peptide by PKal against [IgG] (nM), fitted to the Morrison equation (apparent Ki); panel 'X115-F02 vs WT'.

B1: X115-F02 (antibody, human IgG1, kappa, V domains shown)
VH: EVQLLESGGGLVQPGGSLRLSCAASGFTFSHYIMMWVRQAPGKGLEWVSGIYSSGGITVYADSVKGRFTISRDNSKNTLYLQMNSLRAEDTAVYYCAYRRIGVPRRDEFDIWGQGTMVTVSS
VL: DIQMTQSPSTLSASVGDRVTITCRASQSISSWLAWYQQKPGKAPKLLIYKASTLESGVPSRFSGSGSGTEFTLTISSLQPDDFATYYCQQYNTYWTFGQGTKVEIKR
For the molecule B1, the Ki was 90 pM.

Source of the values: patent publication US20160017055A1.
